Measurements: patent US9403882B2, “Sulfation of Wnt pathway proteins” (priority 2010, dated 2016)
No end group written: not given here. *: point of attachment. sulfate = O=S(=O)(O)*

T1: sclerostin-LRP binding (Homo sapiens, UniProt O75197)
T1 construct: expresses LRP5 extracellular domains 1 and 2 fused to alkaline phosphatase; made in house; host or cells: LRP5R1/2-AP from transfected 293T cells (conditioned medium)
T1 sequence (O75197 32-641 limits assumed): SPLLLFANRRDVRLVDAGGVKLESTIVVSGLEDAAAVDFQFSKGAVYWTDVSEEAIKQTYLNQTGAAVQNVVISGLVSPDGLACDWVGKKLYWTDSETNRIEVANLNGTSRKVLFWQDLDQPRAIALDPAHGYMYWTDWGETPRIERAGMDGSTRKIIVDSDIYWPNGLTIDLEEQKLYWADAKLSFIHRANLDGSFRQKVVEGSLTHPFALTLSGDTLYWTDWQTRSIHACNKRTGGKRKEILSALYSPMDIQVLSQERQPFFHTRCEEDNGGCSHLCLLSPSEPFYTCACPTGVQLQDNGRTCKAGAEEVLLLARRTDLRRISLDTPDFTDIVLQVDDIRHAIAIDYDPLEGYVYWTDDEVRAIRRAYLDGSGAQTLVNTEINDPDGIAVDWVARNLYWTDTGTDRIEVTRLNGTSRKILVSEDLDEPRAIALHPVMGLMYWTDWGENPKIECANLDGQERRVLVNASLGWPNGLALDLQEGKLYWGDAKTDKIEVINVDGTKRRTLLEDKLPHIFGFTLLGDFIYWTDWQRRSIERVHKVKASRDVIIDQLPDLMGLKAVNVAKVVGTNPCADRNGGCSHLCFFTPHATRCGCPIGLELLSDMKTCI

T2: LRP5 extracellular domains 1 and 2 fused to alkaline phosphatase (Homo sapiens, UniProt O75197)
T2 construct: expresses LRP5 extracellular domains 1 and 2 fused to alkaline phosphatase; made in house; host or cells: 293T cells, transfected; concentrated conditioned medium
T2 sequence (O75197 32-641 limits assumed): T1 sequence (O75197 32-641 limits assumed)

B1: sulfated Dkk1: Dkk1 prepared in insect cells untreated with chlorate (protein, UniProt O94907 32-266, looked up)
Dickkopf-related protein 1: TLNSVLNSNAIKNLPPPLGGAAGHPGSAVSAAPGILYPGGNKYQTIDNYQPYPCAEDEECGTDEYCASPTRGGDAGVQICLACRKRRKRCMRHAMCCPGNYCKNGICVSSDQNHFRGEIEETITESFGNDHSTLDGYSRRTTLSSKMYHTKGQEGSVCLRSSDCASGLCCARHFWSKICKPVLKEGQVCTKHRRKGSHGLEIFQRCYCGEGLSCRIQKDHHQASNSSRLHTCQRH
modifications: sulfated, insect cell-expressed
notes: Dkk1 prepared in insect cells untreated with chlorate

What was measured:
sclerostin-LRP binding = molecular target: T1, sclerostin-LRP binding; experiment: Sclerostin binding to LRP in the presence of peptides; settings: 667 μM peptide concentration; FIG. 12
Procedure: Various amounts of unmodified sclerostin or the in vitro treated sclerostin from Example 1 were diluted into 80 μl of TBST buffer and added to individual wells of 96 well plates. After overnight incubation, unbound proteins were removed after which point the coated plates were blocked with 3% nonfat milk in PBS. The plates were than decanted and 0.5×LRP5R1/2AP conditioned medium was added to the plates. After 2.5 hours, the conditioned medium was removed and the 96 well plates were washed five times for three minutes with TBST. The alkaline phosphatase activity in each well was then determined using the Tropix luminescence assay kit (Invitrogen, Carlsbad, Calif.).
Sclerostin binding to LRP in the presence or absence of the sulfated or unsulfated peptides, at 667 μM peptide concentration, was tested using the binding assay essentially as described in Example 3.

[1] = molecular target: T2, LRP5 extracellular domains 1 and 2 fused to alkaline phosphatase; experiment: Binding of AlkPhos-LRP5 to plate-coated sclerostin; settings: TPST-1-treated vs untreated recombinant sclerostin; FIG. 2
[2] = tested on: Wnt induced alkaline phosphatase activity; experiment: Wnt 3a induced alkaline phosphatase activity in 10T1/2 cells; assay type: cell-based; settings: 24 hours, vs untreated sclerostin, highest level of sclerostin input, FIG. 3
Procedure: Growing cultures of 10T1/2 cells were washed with PBS and trypsinized for 5 minutes. Cells were resuspended at a concentration of 6×10^5 cells/ml and 10 μl were seeded into individual wells of a Costar 96 well plate (Corning, Inc.). Wnt 3a and either the untreated sclerostin or the sclerostin from Example 1 were added and the plates were incubated at 37° C. for 24 hours. 50 μl of universal lysis buffer (from the Luciferase Reporter Gene Assay, Roche Applied Science, Indianapolis, Ind.) was added to each well at ambient temperature for 5 minutes. Detection of alkaline phosphatase was measured by the addition of 50 μl of ready-to-use CPSD with Sapphire Enhancer (Applied Biosystems) followed by an incubation at ambient temperature for 25 minutes.

Wnt signaling = experiment: Cell-based luciferase assay using Wnt reporter cells (Dkk1 inhibition of Wnt signaling); settings: Dkk1 from insect cells untreated (sulfated) vs chlorate treated (unsulfated); FIG. 10
Procedure: These four Dkk1 preparations were used at three concentrations in a cell-based luciferase assay using the Wnt reporter cells essentially as described in U.S. Patent Publication 2006/0198791 to determine the effect of sulfation on the ability of Dkk1 to inhibit Wnt signaling. Briefly, the cells were seeded in 96-well microtiter plates at 2×10^5 cells per well, in 50 μl assay medium. After incubation at 37° C. in a 5% CO2 atmosphere overnight, 50 μl DMEM was added to each well. Wnt3a was then added, to a final concentration of 300 ng/ml, followed by addition of either buffer, sulfated Dkk1 or unsulfated Dkk1, where Dkk1 was added to a final concentration of 0.4, 0.133 or 0.044 μg/ml. The plates were then incubated at 37° C. in a 5% CO2 atmosphere for 6 h. Luciferase substrate was then added and chemiluminescence was measured. Each treatment was performed in duplicate.

| Molecule | inhibition of sclerostin-LRP binding (sclerostin-LRP binding) | further results |
| --- | --- | --- |
| H-P-E-L-G-E-Y-P-E-P-P-P-E-L-E-C-NH2 (H-HPELGEYPEPPPELEC-NH2) [PRN8829] | inhibition of sclerostin-LRP binding | – |
| mouse versions of sclerostin: mouse sclerostin, TPST-treated compared with untreated | – | amount of AlkPhos-LRP5 bound to the plates [1]: essentially similar results |
| PRN8830: sulfated P43, sequence of sclerostin amino acids 37-52 where 43 is the sulfation site (HPELGEY(sulfate)PEPPPELEC-NH2) | inhibition of sclerostin-LRP binding | – |
| sclerostin treated in vitro with TPST: human sclerostin (R&D Systems) sulfated in vitro with human TPST1 and PAPS | – | blockage of Wnt induced alkaline phosphatase activity [2]: significantly (P=0.006) more efficient blockage of Wnt induced alkaline phosphate activity |
| H-C-R-S-A-K-A-N-Q-A-E-L-E-N-A-Y-OH (H-HCRSAKANQAELENAY-OH) [PRN8831] | inhibition of sclerostin-LRP binding | – |
| B1 | – | inhibition of Wnt activity (Wnt signaling): greater inhibition of Wnt activity |
